In the Immune Epitope Database (IEDB):

Columns and labels:
[1] = molecular target: HLA-A*02:01; assay: IEDB peptide-MHC binding, purified MHC/competitive/fluorescence; ≥ and ≤ were set here for values at or beyond the usual limits of such assays
[2] = molecular target: HLA-B*44:02; assay: IEDB peptide-MHC binding, purified MHC/competitive/radioactivity; filed as Kd, often an IC50 or EC50 that approximates it; ≥ and ≤ were set here for values at or beyond the usual limits of such assays
[3] = molecular target: HLA-B*44:03; assay: as above
[4] = molecular target: HLA-A*02:01; assay: as above
[5] = molecular target: HLA-A*24:02; assay: as above; details: source organism: Dengue virus 2 Jamaica/1409/1983
[6] = molecular target: HLA-A*26:01; assay: as above; details: source organism: Dengue virus 4 Philippines/H241/1956
[7] = molecular target: HLA-A*03:01; assay: IEDB peptide-MHC binding, purified MHC/direct/fluorescence; filed as Kd, often an IC50 or EC50 that approximates it; ≥ and ≤ were set here for values at or beyond the usual limits of such assays; details: source organism: Haemophilus influenzae
[8] = molecular target: HLA-A*31:01; assay: as above
[9] = molecular target: HLA-B*15:01; assay: as above
[10] = molecular target: HLA-A*30:01; assay: IEDB peptide-MHC binding, purified MHC/competitive/radioactivity; filed as Kd, often an IC50 or EC50 that approximates it; ≥ and ≤ were set here for values at or beyond the usual limits of such assays
[11] = molecular target: HLA-A*03:01; assay: as above; details: source organism: Vaccinia virus WR
[12] = molecular target: HLA-A*11:01; assay: as above; details: source organism: Vaccinia virus WR
[13] = molecular target: HLA-A*31:01; assay: as above; details: source organism: Vaccinia virus WR
[14] = molecular target: HLA-A*33:01; assay: as above
[15] = molecular target: HLA-A*68:01; assay: as above
[16] = molecular target: HLA-A*02:01; assay: IEDB peptide-MHC binding, purified MHC/direct/fluorescence; filed as Kd, often an IC50 or EC50 that approximates it; ≥ and ≤ were set here for values at or beyond the usual limits of such assays; details: source organism: SARS-CoV1
[17] = molecular target: HLA-A*69:01; assay: as above; details: source organism: SARS-CoV1
[18] = molecular target: HLA-B*27:05; assay: as above; details: source organism: SARS-CoV1
[19] = molecular target: HLA-A*24:02; assay: IEDB peptide-MHC binding, purified MHC/competitive/fluorescence; ≥ and ≤ were set here for values at or beyond the usual limits of such assays; details: source organism: Zaire ebolavirus
[20] = source organism: Dengue virus 3 Martinique/1243/1999
[21] = source organism: Sudan ebolavirus
[22] = source organism: Haemophilus influenzae
[23] = source organism: Vaccinia virus WR
[24] = source organism: Dengue virus 3 Singapore/8120/1995
[25] = source organism: SARS coronavirus Tor2

## FQESADSFL
[1]; source organism: Zaire ebolavirus
  IC50: 14000 nM

## GEKKKLRPRW
[2]; [20]
  Kd: 342 nM
[3]; [20]
  Kd: 2600 nM

## GLNLEGSGV
[1]; [21]
  IC50: 3860 nM

## GMSGGNQGA
[4]; source organism: Lassa virus Josiah
  Kd: 12500 nM

## GYHTQTAGPW
[5]
  Kd: 3250 nM

## HEMYWVSCG
[2]; source organism: Dengue virus 1 Brazil/97-11/1997
  Kd: 37.4 nM

## HLHQQLSNT
[1]; [21]
  IC50: 15000 nM

## HTIENTSAN
[6]
  Kd: 4840 nM

## ILDKVLVHP
[4]; source organism: Homo sapiens
  Kd: 4080 nM

## ILKEHVSRY
[7]
  Kd: 3180 nM
[8]; [22]
  Kd: 5580 nM
[9]; [22]
  Kd: 531 nM

## ISRSRRLFA
[10]; [23]
  Kd: 2.23 nM

## IVRDSMWYI
[10]; source organism: Vaccinia virus Copenhagen
  Kd: 19.7 nM

## KAISNARLK
[10]; [23]
  Kd: 26 nM

## KAKTTISNY
[10]; [23]
  Kd: 24.3 nM

## KEEHSSTWHY
[2]; [24]
  Kd: 42.2 nM
[3]; [24]
  Kd: 205 nM

## KETACLGKSY
[3]; source organism: Dengue virus 2 Jamaica/1409/1983
  Kd: 23.6 nM

## KFRPGSLIY
[11]
  Kd: ≥ 21300 nM
[12]
  Kd: ≥ 58400 nM
[10]; [23]
  Kd: 0.303 nM
[13]
  Kd: 11300 nM
[14]; [23]
  Kd: ≥ 77700 nM
[15]; [23]
  Kd: ≥ 77700 nM

## KIKSSNSSK
[10]; [23]
  Kd: 14.6 nM

## KLFAAETLK
[16]
  Kd: ≥ 29200 nM
[8]; source organism: SARS-CoV1
  Kd: 173 nM
[17]
  Kd: 15900 nM
[9]; source organism: SARS-CoV1
  Kd: ≥ 21300 nM
[18]
  Kd: 2180 nM
[14]; [25]
  Kd: 13600 nM
[15]; [25]
  Kd: 399 nM

## KRDGVKRLE
[19]
  IC50: ≥ 173000 nM
